From patent US20190276531A1 (SYMPHOGEN A S, published 2019)

T1: cynomolgus TIM-3 ECD fused C-terminally to human IgG1 Fc (made in-house, ExpiCHO) (cynomolgus monkey (Macaca …))
T1 construct: whole entry named
T1 chain: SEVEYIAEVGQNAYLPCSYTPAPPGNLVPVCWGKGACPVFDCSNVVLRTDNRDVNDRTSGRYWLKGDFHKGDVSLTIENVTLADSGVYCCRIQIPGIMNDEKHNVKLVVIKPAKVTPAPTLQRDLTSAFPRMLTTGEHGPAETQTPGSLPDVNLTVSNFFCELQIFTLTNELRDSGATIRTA


What was measured:
[1] = target: T2, human TIM-3 Fc fusion antigen (Sino Biologicals) (human, UniProt Q8TDQ0 22-202); experiment: ELISA; TIM-3 Fc fusion coated at 1 µg/ml, antibody titrated 2-fold from 1000 nM, HRP secondary
T2 construct: Bought; also called human TIM-3 ECD; not shown: Fc part of the bought fusion protein, not described

[2] = target: T1, cynomolgus TIM-3 ECD fused C-terminally …; experiment: SPR (IBIS MX96); TIM-3 ECD-Fc captured on anti-human IgG Fc sensor, Fab injected 1-100 nM; 1:1 Langmuir fit
[3] = target: T3, monomeric human TIM-3 ECD antigen (Acro Biosystems) (human, UniProt Q8TDQ0 22-202); experiment: SPR (IBIS MX96); antibody captured on anti-human IgG Fc sensor, monomeric human TIM-3 ECD injected 2-100 nM; 1:1 Langmuir fit
T3 construct: Bought; also called soluble monovalent TIM-3 antigen (Acro Biosystems, China)

[4] = target: T4, R-PE-labeled human TIM-3-Fc chimera protein (R&D Systems) (human, UniProt Q8TDQ0 22-200, conjugated to R-phycoerythrin (R-PE), sites not stated); experiment: flow cytometry competition: R-PE-labelled TIM-3-Fc pre-mixed with titrated antibody, then binding to phosphatidylserine-positive apoptotic Jurkat cells (MFI); blocked ligand: phosphatidylserine; unit taken from the axis log(Concentration) µg/ml
T4 construct: Bought; also called TIM-3-PE; soluble TIM-3-Fc; Fc part of the bought chimera not given, not described

Binder | EC50 [1] [pM] | further results
antibody 19416 (antibody, V domains shown) VH: QVQLVESGPGLVKPSQTLSLTCTVSGGSINSGGYYWSWIRQHPGKGLEWIGYIYYSGSIYYNPSLRSRLTISVDTSKNQFSLKLSSVTAADTAVYYCATPYYYGSGSYGDYWGQGTLVTVSS VL: DIQMTQSPATLSLSPGERATLSCRASQSVNNYLAWYQQKPGQAPRLLIYDASNRATGIPARFSGSGSGTDFTLTISSLEPEDFAVYYCQQRSNWPITFGQGTRLEIK | 200 | 
antibody 20362 (antibody, V domains shown) VH: QVTLKESGPGLVKPSQTLSLTCTVSGGSISSGGHYWSWIRQHPGKGLEWIGYISYSGSTYYNPSLKSRLTISVDTSKNQFSLKLSSVTAADTAVYYCATAYYDILTGYPFDYWGQGTLVTVSS VL: EIVMTQSPATLSLSPGERATLSCRASQSVSSYLAWYQQKPGQAPRLLIYDASDRATGIPARFSGSGSGTDFTLTISSLEPEDFAVYYCQQRSNWPITFGQGTRLEIK | 260 | 
Fab 20131 (Fab, V domains shown, not shown: cleavage site not s) VH: QVQLQQSGGGLVQPGGSLRLSCAASGFTLSSYAMSWVRQAPGKGLEWVSGISGSGGSTYNADSVKGRFTISRDNSKNTLFLQMNSLRAEDTAVYYCAKIFGSYYFDYWGQGTLVTVSS VL: not shown |  | Kd [2]: 22000 pM
antibody 19324 (antibody, V domains shown) VH: QMQLQQSGGGLVQPGGSLRLSCAASGFTVSSYAMSWVRQALGKGLEWVSGISGSGGSTYYADSVKGRFTISRDNSKNTLYLQMNSLRAEDTAVYYCAKIVGATHFDYWGQGTLVTVSS VL: not shown | 730 | 
antibody 20300 (antibody, V domains shown) VH: QVQLQQSGGGLVHPGGSLRLSCAASGFTVDTYAMTWVRQAPGKGLEWVSGISGSGGSTYYADSVKGRFTISRDNSKNTLYLQMNSLRDEDTAVYYCAKIVGVTHFDYWGQGTLVTVSS VL: not shown | 1130 | 
antibody 20185 (antibody, V domains shown) VH: QVQLVESGGGLVRPGGSLRLSCAVSGFTFSSYAMSWVRQAPGKGLEWVSGISGSGGSTYNADSVKGRFTISRDNSKNTLYLQMNSLRAEDTAVYYCAKIFGSYYFDYWGQGTLVTVSS VL: not shown | 170 | 

Continued by falling EC50 [1], values first:

EC50 [1] [pM] | Binder | further results
380 | antibody 19568 (antibody, V domains shown) VH: QMQLQESGPGLVKPSQTLSLTCTVSGGSISSVGYYWNWIRQHPGKGLEFIGYIYYSGSIYYNPSLKSRVTISVDTSKNQFSLKLSSVTAADTALYYCASVGIVGASYFEYWGQGTLVTVSS VL: EIVMTQSPATLSLSPGERATLSCRASQSVSSYLAWYQQKPGQAPRLLIYDASNRATGIPARFSGSGSGTDFTLTISSLEPEDFAVYYCQQRSNWPITFGQGTRLEIK | 
220 | antibody 20621 (antibody, V domains shown) VH: QVQLQQSGPGLVKPSQTLSLTCTVSGGSISSGGYYWSWIRQHPGKGLEWIGYISYSGSIYYNPSLKSRVTISVDTSKNQFSLKLSSVTATDTAVYYCATAYYDLLTGYPFDYWGQGTLVTVSS VL: EIVMTQSPATLSLSPGERATLSCRASQSVSSYLAWYQQKPGQAPRLLIYDASNRATGIPARFSGSGSGTDFTLTISSLEPEDFAVYYCQQRSNWPITFGQGTRLEIK | 
125 | antibody 15086.17145 (antibody, human IgG2, kappa) heavy: QVQLQESGPGLVKPSQTLSLTCTVSGGSISSGGYYWSWTRQHPGMGLEWIGYISYSGSIYYTPSLKSRLTISVDTSKNQFSLKLSSVTAADTAVYYCASLDSWGSNRDYWGQGTLVTVSSASTKGPSVFPLAPCSRSTSESTAALGCLVKDYFPEPVTVSWNSGALTSGVHTFPAVLQSSGLYSLSSVVTVPSSNFGTQTYTCNVDHKPSNTKVDKTVERKCCVECPPCPAPPVAGPSVFLFPPKPKDTLMISRTPEVTCVVVDVSHEDPEVQFNWYVDGVEVHNAKTKPREEQFNSTFRVVSVLTVVHQDWLNGKEYKCKVSNKGLPAPIEKTISKTKGQPREPQVYTLPPSREEMTKNQVSLTCLVKGFYPSDIAVEWESNGQPENNYKTTPPMLDSDGSFFLYSKLTVDKSRWQQGNVFSCSVMHEALHNHYTQKSLSLSPGK light: not shown | Kd [3]: 19000 pM; IC50 [4]: 0.651 µg/mL
